Measured values reported in the supplement of paper PMC7877785.
± gives the uncertainty stated by the source.

Assay: self-splicing fitness, log relative to wild type (ln ratio); higher = more splicing; Tetrahymena group I intron in knt gene, E. coli kanamycin selection, DiMSum; sequences stand for … in CUCUCU…GGAGGGAAAAGUUAUCAGGCAUGCACCUGGUAGCUAGUCUUUAAACCAAUAGAUUGCAUCGGUUUAAAAGGCAAGACCGUCAAAUUGCGGGAAAGGGGUCAACAGCCGUUCAGUACCAAGUCUCAGGGGAAACUUUGAGAUGGCCUUGCAAAGGGUAUGGUAAUAAGCUGACGGACAUGGUCCUAACCACGCAGCCAAGUCCUAAGUCAACAGAUCUUCUGUUGAUAUGGAUGCAGUUCACAGACUAAAUGUCGGUCGGGGAAGAUGUAUUCUUCUCAUAAGAUAUAGUCGGACCUCUCCUUAAUGGGAGCUAGCGGAUGAAGUGAUGCAACACUGGAGCCGCUGGGAACUAAUUUGUAUGCGAAAGUAUAUUGAUUAGUUUUGGAGUACUCGUGGUCG
Outline: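 Colonies from six replicate transformations of E. coli BL21(DE3) were pooled and amplicon-sequenced on an Illumina HiSeq 2500. The library placed an intron with all eight P1ex-region nucleotides randomised inside the knt kanamycin-resistance gene on pET-22b(+), and cells grew overnight at 37°C or 30°C on LB agar with or without 25 μg/mL kanamycin (plus 100 μg/mL carbenicillin, 50 μM IPTG, 0.2% rhamnose). Fitness is the DiMSum error-weighted combination of wild-type-normalised replicate fold changes, kanamycin versus none.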

Sequence	self-splicing fitness (ln) (30 °C)	self-splicing fitness (ln) (37 °C)
UUGCAGCAAUAUUACGGCAA	-3.02 ± 0.23	-2.27 ± 0.24
UUGCAGCAAUAUUACGGCGC	-1.8 ± 0.24	-1.84 ± 0.31
UUGCAGCAAUAUUACGUAGA	-1.46 ± 0.074	-0.271 ± 0.079
UUGCAGCAAUAUUACGUAUG	-1.8 ± 0.081	-1.11 ± 0.12
UUGCAGCAAUAUUACGUCGA	-0.56 ± 0.09	0.0432 ± 0.13
UUGCAGCAAUAUUACGUGCG	-3.18 ± 0.16	-1.43 ± 0.14
UUGCAGCAAUAUUACGUUGU	-3.23 ± 0.2	-2.81 ± 0.2
UUGCAGCAAUAUUACGUUUA	-1.31 ± 0.096	-1.02 ± 0.088
UUGGAGCAAUAUUACGAAGU	-3.34 ± 0.37	0.521 ± 0.31
UUGGAGCAAUAUUACGACGU	-1.85 ± 0.48	
UUGGAGCAAUAUUACGAGAA		-1.78 ± 0.44
UUGGAGCAAUAUUACGAGGC	-3.52 ± 0.4	
UUGGAGCAAUAUUACGAGUC		-3.03 ± 0.43
UUGGAGCAAUAUUACGAUCA	0.364 ± 0.35	-0.451 ± 0.45
UUGGAGCAAUAUUACGAUGA	-0.635 ± 0.11	-0.543 ± 0.11
UUGGAGCAAUAUUACGAUGU	-1.71 ± 0.44	-1.83 ± 0.35
UUGGAGCAAUAUUACGCACG	-1.33 ± 0.17	-1.92 ± 0.29
UUGGAGCAAUAUUACGCCCG	-1.94 ± 0.45	
UUGGAGCAAUAUUACGCGGA		-1.08 ± 0.36
UUGGAGCAAUAUUACGCUUG	-2.69 ± 0.3	-1.25 ± 0.27
UUGGAGCAAUAUUACGGCUG	-2.22 ± 0.28	
UUGGAGCAAUAUUACGGUCA	-1.21 ± 0.16	-2.65 ± 0.23
UUGGAGCAAUAUUACGGUCG	-2.36 ± 0.28	
UUGGAGCAAUAUUACGUAAU	-3.28 ± 0.19	-2.38 ± 0.31
UUGGAGCAAUAUUACGUAUG	-3.25 ± 0.36	-1.36 ± 0.37
UUGGAGCAAUAUUACGUCAG	-2.63 ± 0.26	-0.954 ± 0.2
UUGGAGCAAUAUUACGUUCU		-3.09 ± 0.27

Sequence	self-splicing fitness (ln) (30 °C)	self-splicing fitness (ln) (37 °C)
UUGUAGCAAUAUUACGAAGG		-1.9 ± 0.47
UUGUAGCAAUAUUACGACAU	-0.918 ± 0.015	-0.322 ± 0.034
UUGUAGCAAUAUUACGAUGG	-1.53 ± 0.16	-0.75 ± 0.2
UUGUAGCAAUAUUACGCACA	-0.174 ± 0.17	-0.658 ± 0.22
UUGUAGCAAUAUUACGCAGU		-2.1 ± 0.3
UUGUAGCAAUAUUACGCCAG	-0.515 ± 0.14	-0.137 ± 0.2
UUGUAGCAAUAUUACGCUCG	-0.29 ± 0.14	-0.456 ± 0.25
UUGUAGCAAUAUUACGCUUA	-1.77 ± 0.25	-1 ± 0.2
UUGUAGCAAUAUUACGGACC	-2.38 ± 0.25	-1.46 ± 0.34
UUGUAGCAAUAUUACGGACU	-1.65 ± 0.14	-0.723 ± 0.16
UUGUAGCAAUAUUACGGAGC	-3.08 ± 0.25	-2.38 ± 0.29
UUGUAGCAAUAUUACGGCAG	-0.0514 ± 0.14	0.374 ± 0.18
UUGUAGCAAUAUUACGGCGA	0.174 ± 0.1	0.227 ± 0.14
UUGUAGCAAUAUUACGGUCA	-0.412 ± 0.17	-0.486 ± 0.2
UUGUAGCAAUAUUACGGUCG	-0.458 ± 0.12	-0.593 ± 0.15
UUGUAGCAAUAUUACGGUGC	-2.37 ± 0.45	-2.07 ± 0.34
UUGUAGCAAUAUUACGUAAG	-2.25 ± 0.17	-1.02 ± 0.16
UUGUAGCAAUAUUACGUCAA	-0.947 ± 0.16	-0.538 ± 0.16
UUUAAGCAAUAUUACGACAG	-0.664 ± 0.15	-0.475 ± 0.2
UUUAAGCAAUAUUACGACCC	-1.3 ± 0.31	0.0123 ± 0.28
UUUAAGCAAUAUUACGACGA	0.228 ± 0.089	0.29 ± 0.11
UUUAAGCAAUAUUACGAGAU	-3.92 ± 0.26	-0.782 ± 0.16
UUUAAGCAAUAUUACGAGCG	-0.94 ± 0.14	-0.4 ± 0.17
UUUAAGCAAUAUUACGAUAA	-0.773 ± 0.1	0.228 ± 0.13
UUUAAGCAAUAUUACGAUCA	-0.491 ± 0.1	0.00531 ± 0.11
UUUAAGCAAUAUUACGAUGA	0.318 ± 0.13	-0.175 ± 0.14
UUUAAGCAAUAUUACGCCCU	-0.119 ± 0.24	0.0801 ± 0.28

Sequence	self-splicing fitness (ln) (30 °C)	self-splicing fitness (ln) (37 °C)
UUUAAGCAAUAUUACGCCUG	-0.642 ± 0.14	-0.13 ± 0.14
UUUAAGCAAUAUUACGCGCU	-1.15 ± 0.18	-0.609 ± 0.2
UUUAAGCAAUAUUACGCGGC		-2.78 ± 0.31
UUUAAGCAAUAUUACGCGGG	-1.81 ± 0.13	-1.63 ± 0.14
UUUAAGCAAUAUUACGCGUG	-1.15 ± 0.13	-0.368 ± 0.14
UUUAAGCAAUAUUACGCUCA	-0.755 ± 0.15	-0.395 ± 0.17
UUUAAGCAAUAUUACGCUGU	-3.57 ± 0.21	-1.79 ± 0.18
UUUAAGCAAUAUUACGGACG	-0.647 ± 0.15	0.235 ± 0.19
UUUAAGCAAUAUUACGGCAU	-1.59 ± 0.11	-0.239 ± 0.12
UUUAAGCAAUAUUACGGCUG	-0.528 ± 0.13	-0.292 ± 0.16
UUUAAGCAAUAUUACGGGAA	-1.63 ± 0.094	-0.806 ± 0.095
UUUAAGCAAUAUUACGUAGA	-0.521 ± 0.098	0.0733 ± 0.14
UUUAAGCAAUAUUACGUCUU	-2.57 ± 0.15	-1.81 ± 0.16
UUUAAGCAAUAUUACGUGUA	-1.88 ± 0.12	-0.799 ± 0.12
UUUAAGCAAUAUUACGUUAC	-3.76 ± 0.3	-3.05 ± 0.26
UUUAAGCAAUAUUACGUUCU	-1.53 ± 0.11	-0.963 ± 0.11
UUUAAGCAAUAUUACGUUGC	-3.26 ± 0.43	-2.97 ± 0.38
UUUCAGCAAUAUUACGACUG	-2.89 ± 0.2	-1.53 ± 0.18
UUUCAGCAAUAUUACGACUU	-0.723 ± 0.077	-0.00938 ± 0.099
UUUCAGCAAUAUUACGCAUG	-0.765 ± 0.093	-0.0959 ± 0.11
UUUCAGCAAUAUUACGCCUG	-1.95 ± 0.12	-1.02 ± 0.11
UUUCAGCAAUAUUACGCGCC	-1.72 ± 0.24	-0.992 ± 0.37
UUUCAGCAAUAUUACGCUCA	-0.608 ± 0.17	0.404 ± 0.18
UUUCAGCAAUAUUACGCUCC	-1.69 ± 0.22	-1.02 ± 0.29
UUUCAGCAAUAUUACGCUGG	-3.94 ± 0.3	-1.77 ± 0.33
UUUCAGCAAUAUUACGCUGU	-3.52 ± 0.13	-2.19 ± 0.21
